We go through two substances from patent US20020147306A1, “Peptides that modulate the interaction of B class ephrins and PDZ domains” (priority 1998, published 2002).

Common to all, as to assay: fluorescence polarization, 25 nM fluorescein-labelled peptide, GST fusion titrated, 22 C
In general terms: In fluorescence polarisation assays a small probe gives low polarisation when free and higher when bound to something large.

Experiment [1] has as its target fluorescein-labelled NIpYYKV peptide.
The target in experiment [2] is fluorescein-labelled NIpYpYKV peptide.
The target of experiment [3] is fluorescein-labelled NIYpYKV peptide.
The target of experiment [4] is fluorescein-labelled NIYYKV peptide.

GST-FAP-1 PDZ5 fusion protein, sequence (P08515 whole entry, the tested form may be a part): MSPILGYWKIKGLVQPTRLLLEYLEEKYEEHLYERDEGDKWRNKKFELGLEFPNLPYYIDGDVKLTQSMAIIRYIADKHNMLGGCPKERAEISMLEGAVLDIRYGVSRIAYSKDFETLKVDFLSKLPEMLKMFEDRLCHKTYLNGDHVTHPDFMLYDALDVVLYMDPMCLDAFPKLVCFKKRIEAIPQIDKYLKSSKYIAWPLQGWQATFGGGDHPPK

Broadly, the Kd is the constant that tells how readily two partners part at equilibrium. As to “GST-FAP-1 PDZ5 fusion protein (from UniProt P08515 1-218)”, the Kd in experiment [1] was determined as 6.8 µM; in experiment [2], 8.4 µM; in experiment [3], 15.4 µM; in experiment [4], 9.9 µM.
For the substance “GST-FAP-1 PDZ3 fusion protein (from UniProt Q12923 1368-1452)”, the Kd in experiment [4] was 65 µM.
